Results from patent US20220243196.

Columns and labels:
[1] = system: Influenza A virus (serum containing virus) (Influenza A virus); experiment: ELONA
[2] = system: Hantavirus (serum containing virus; nuclear protein) (Hantavirus); experiment: ELONA

“ATCCAGAGTGACGCAGCACACATCGGAGAACAGGCGCACTGTCGGAGGAACCGCAACGTGGACACGGTGGCTTAGT [biotin-aptamer 3]” showed a binding signal (a.u. absorbance) [1] of 0.1 and a binding signal (a.u. absorbance) [2] of 0.1.
